Target: Histone H3 N-terminal peptide trimethylated at lysine-4 (celluspot peptide #1)
Assay: peptide or protein array

Sequence of GST-tagged CHD5 PHD1 finger (338-393) (Q8TDI0 338-393): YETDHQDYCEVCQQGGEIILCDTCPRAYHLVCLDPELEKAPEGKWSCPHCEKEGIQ
Sequence of GST-tagged CHD5 PHD2 finger (413-468) (Q8TDI0 413-468): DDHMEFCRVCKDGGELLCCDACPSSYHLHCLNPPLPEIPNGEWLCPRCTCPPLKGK

| decrease in signal against unmodified H3 [%] | Substance |
| --- | --- |
| > 90 | GST-tagged CHD5 PHD1 finger (338-393) (from UniProt Q8TDI0 338-393) (domain or fragment) |
| > 90 | GST-tagged CHD5 PHD2 finger (413-468) (from UniProt Q8TDI0 413-468) (domain or fragment) |
